Measurements: US20190144537A1
Changes are numbered by the printed parent chain.

B1: 28042.1 antibody (antibody, human IgG1, kappa, V domains shown)
VH: EVQLLESGGGLVQPGGSLRLSCAASGFTFSDYMMSWVRQAPGKGLEWVSWIRSSGGTTLYADSVKGRFTISRDNSKNTLYLQMNSLRAEDTATYYCARVGGGTTGYAFDIWGQGTMVTVSS
VL: DIQMTQSPSSLSASVGDRVTITCRASQSISSYLNWYQQKPGKAPKLLIYGASSLQSGVPSRVSGTGSGTDFTLTISSLQPEDFATYYCQQSYSPSFTFGPGTKVDFER
B2: 28042.2 antibody (antibody, human IgG1, kappa, V domains shown)
VH: B1 VH
VL: B1 VL with S31N, G50A

Molecular target: cynoNotch3 monomer (cyno)
Assay: binding to cynoNotch3 monomer at 25° C., protocol similar to that for hNotch3 (method not named)

Binder | Kd [nM]
B1 | 5.35
B2 | 214
